The values that follow come from patent US8361510B2, “Nanogels for cellular delivery of therapeutics” (Georgia Tech Research Corporation, priority 2008, dated 2013).

Where no end group is shown, it is not given here.

Data set [1] in a line: siRNA encapsulation in nanogels ("breathing-in" loading, UV-vis of supernatant). The format is physicochemical. The note with it: lyophilized nanogels reswollen in siRNA solution. The source says: In vitro siRNA encapsulation and release. Our group employs a “breathing-in” method for the encapsulation of various macromolecules within nanogels. In a typical method, lyophilized nanogels are resuspended in an aqueous solution containing the macromolecule to be loaded. Importantly, this is done using a loading solution volume that is almost completely imbibed by the swelling nanogels. In this fashion, the hydrogel network imbibes the payload with high efficiency and without relying on simple equilibrium partitioning to determine the maximum loading level. […]
The encapsulation efficiency was determined via ultracentrifugation of the nanogel loading solution and measurement of supernatant siRNA concentration by UV-vis spectroscopy (Shimadzu UV-1601). The moles of siRNA in the loading solution (msiRNA, Loading) and in the supernatant (msiRNA, Supernatant) were determined via interpolation from a separately constructed standard curve of absorbance vs. concentration (R^2>0.99). The encapsulation efficiency (EE) of the system could then be calculated through analysis of the amount of siRNA in the loading solution and the remaining moles of siRNA in the supernatant after nanogel swelling was complete, as illustrated by Equation 1 and in similar encapsulation experiments. […]

Another data set concerns Hey cells. The experiment in a line: Trypan blue exclusion assay. The format is cell-based. How it is done:
Toxicity Studies—Trypan blue exclusion assay. Hey cells were plated onto an 8-well chamber slide (1×10^4 cells/well) and allowed to adhere overnight at 37° C. and 5% CO2. The media was removed, the wells washed with PBS, and the medium replaced. PNIPMAm nanogels, YSA-conjugated nanogels, and SCR-conjugated nanogels were added to cells and incubated for 72 h. Untreated cells were used as controls. After 72 h, the cells washed with PBS, and a 1:1 solution of trypan blue was added to each well. After 1 min, the trypan blue was removed, the cells were washed with PBS, fixed with 2% (v/v) paraformaldehyde, and air dried. Each well was then viewed via bright field microscopy to determine the number of stained (dead) versus unstained cells. Five fields were viewed for each treatment.

In data set [1], “YSA-conjugated nanogels: core/shell pNIPMAm nanogels with YSA peptide coupled to shell amines via maleimide (EMCA) (YSAYPDSVPMMSC; also: coupled to nanogel shell amines via maleimide (EMCA))” registered a siRNA encapsulation efficiency of 93±1%. Further, the “blue (dead) cells” value with Hey cells is reported as “not observed”.
